Experimental data as given in patent publication US20200024337A1 (H LUNDBECK A S, published 2020).
Like-named read-outs stand apart in the source and are kept apart here.

Tests used:
[1] = molecular target: T1, …; experiment: Pepscan ELISA on a synthesized peptide array (peroxidase conjugate, ABTS, CCD read-out, scale 0 to 3000) [upper panel]
T1 construct: x-axis label of the 2nd bar, upper panel
Procedure: (§1) The binding of antibody to each of the synthesized 20 mer peptides was tested in a Pepscan based ELISA. The linear peptide array covering the entire coding sequence of alpha-synuclein, as well as all peptides with oxidized methionines or nitrosylated tyrosines, were incubated with primary antibody solution (overnight at 4° C.). After washing, the peptide arrays were incubated with a 1/1000 dilution of an antibody peroxidase conjugate (SBA,cat.nr.2010-05) for one hour at 25° C. After washing, the peroxidase substrate 2,2′-azino-di-3-ethylbenzthiazoline sulfonate (ABTS) and 2 μl/ml of 3 percent H₂O₂ were added. After one hour, the color development was measured. The color development was quantified with a charge coupled device (CCD)—camera and an image processing system. […] The results were quantified and stored into the Peplab database. Occasionally a well contains an air-bubble resulting in a false-positive value, the cards are manually inspected and any values caused by an air-bubble are scored as 0.

[2] = molecular target: T2, …; experiment: as above
T2 construct: x-axis label of the 3rd bar, upper panel
Procedure: as §1

[3] = molecular target: T3, …; experiment: as above
T3 construct: x-axis label of the 4th bar, upper panel; also called alpha-synuclein 20-mer 121-140
Procedure: as §1

alpha-synuclein [4] = molecular target: T4, alpha-synuclein (human, UniProt P37840 1-140); experiment: SPR (Biacore 3000), synuclein ligand format
alpha-synuclein [5] = molecular target: T4, alpha-synuclein; experiment: SPR (Biacore 3000), IgG captured by anti-human IgG on CM5 chip, synuclein as analyte
alpha-synuclein [6] = molecular target: T4, alpha-synuclein; experiment: as above; remark: listed apart in the source

B1: mouse 2E6 (antibody, V domains shown)
VH: QVQLQQPGAELVKPGASVKLSCTASGYTFTSYWMHWMKQRPGRGLEWIGRIDPNSGTTKYNVNFKTKATLTVDKPSSTAYMHLSSLTSEDSAVYYCARLGHYGNLYAMDYWGQGTSVT
VL: QIVLTQSPAIMSASPGEKVTMTCSASSSVSYMHWYQQKSGTSPKRWIYDTSKLASGVPTRFSGSGSGTSYSLTISSMDTEDAATYYCQQWSSNPPTFGAGTKLELK
notes: also called m2E6
binding result [1]: binds | binding result [2]: binds | binding result [3]: binds

B2: chimeric 2E6 (antibody, V domains shown)
VH: QVQLQQPGAELVKPGASVKLSCTASGYTFTSYWMHWMKQRPGRGLEWIGRIDPNSGTTKYNVNFKTKATLTVDKPSSTAYMHLSSLTSEDSAVYYCARLGHYGNLYAMDYWGQGTSVT
VL: QIVLTQSPAIMSASPGEKVTMTCSASSSVSYMHWYQQKSGTSPKRWIYDTSKLASGVPTRFSGSGSGTSYSLTISSMDTEDAATYYCQQWSSNPPTFGAGTKLELK
notes: also called ch2E6; Ch2E6
KD improvement (alpha-synuclein [4]): 1 fold (Ch2E6 = 1) | KD improvement (alpha-synuclein [5]): 1 fold (Ch2E6 = 1) | KD improvement (alpha-synuclein [6]): 1 fold (Ch2E6 = 1)

B3: 2E6-HLD-1 (antibody, V domains shown)
VH: QVQLVQSGAEVKKPGASVKVSCKASGYTFTSYWMHWMRQAPGQGLEWIGRIDPNSGTTKYNVNFKTRATLTVDKSTSTAYMELSSLRSEDTAVYYCARLGHYGNLYAMDYWGQGTLVT
VL: EIVLTQSPATLSLSPGERATLSCSASSSVSYMHWYQQKPGQAPRRWIYDTSKLASGVPARFSGSGSGTDYTLTISSLEPEDFAVYYCQQWSSNPPTFGQGTKLEIKR
notes: Humanized 2E6; also called h2E6-HLD-1; H2E6-HLD-1
KD improvement (alpha-synuclein [4]): 2 fold (Ch2E6 = 1) | KD improvement (alpha-synuclein [5]): 2.5 fold (Ch2E6 = 1) | KD improvement (alpha-synuclein [6]): 2.5 fold (Ch2E6 = 1)

B4: 7A10 (antibody, V domains shown)
VH: QVQLVQSGAEVKKPGASVKVSCKASGYTFTSYWMHWMRQAPGQGLEWIGRIDPNSGTTKYNVNFKTRATLTVDKSTSTAYMELSSLRSEDTAVYYCARLGHYGNLYAKDYWGQGTLVT
VL: EIVLTQSPATLSLSPGERATLSCSASSSVSYIHWYQQKPGQAPRRWIYDTSKLASGVPARFSGSGSGTDYTLTISSLEPEDFAVYYCQQWSSNPPTFGQGTKLEIK
notes: also called 2E6_7A10; 2E6-HLD1-7A10
KD improvement (alpha-synuclein [6]): 10.3 fold (Ch2E6 = 1) | Ka (alpha-synuclein [6]): 1.81e+08 M⁻¹ | Kd (alpha-synuclein [6]): 5.52 nM | koff (alpha-synuclein [6]): 0.000285 s⁻¹ | kon (alpha-synuclein [6]): 51700 M⁻¹ s⁻¹

B5: 8D9 (antibody, V domains shown)
VH: QVQLVQSGAEVKKPGASVKVSCKASGYTFTSYWMHWMRQAPGQGLEWIGRIDPNSGTTKYNVNFKTRATLTVDKSTSTAYMELSSLRSEDTAVYYCARLGHYGNLYAKDYWGQGTLVT
VL: EIVLTQSPATLSLSPGERATLSCSASSSVSYIHWYQQKPGQAPRRWIYDTSKLASGVPARFSGSGSGTDYTLTISSLEPEDFAVYYCQQWSSNPPTFGQGTKLEIK
KD improvement (alpha-synuclein [6]): 8.7 fold (Ch2E6 = 1)

B6: 2E6-HLD-3 (antibody, V domains shown)
VH: QVQLVQSGAEVKKPGASVKVSCKASGYTFTSYWMHWMRQAPGQGLEWIGRIDPNSGTTKYNVNFKTRVTLTVDKSTSTAYMELSSLRSEDTAVYYCARLGHYGNLYAMDYWGQGTLVT
VL: EIVLTQSPATLSLSPGERATLSCSASSSVSYMHWYQQKPGQAPRRWIYDTSKLASGVPARFSGSGSGTDYTLTISSLEPEDFAVYYCQQWSSNPPTFGQGTKLEIKR
notes: Humanized 2E6; also called h2E6-HLD-3; H2E6-HLD-3
KD improvement (alpha-synuclein [4]): 1 fold (Ch2E6 = 1) | Kd (alpha-synuclein [4]): 5.32 nM

B7: 2E6-HLD-2 (antibody, V domains shown)
VH: QVQLVQSGAEVKKPGASVKVSCKASGYTFTSYWMHWVRQAPGQGLEWIGRIDPNSGTTKYNVNFKTRATLTVDKSTSTAYMELSSLRSEDTAVYYCARLGHYGNLYAMDYWGQGTLVT
VL: EIVLTQSPATLSLSPGERATLSCSASSSVSYMHWYQQKPGQAPRRWIYDTSKLASGVPARFSGSGSGTDYTLTISSLEPEDFAVYYCQQWSSNPPTFGQGTKLEIKR
notes: Humanized 2E6; also called h2E6-HLD-2; H2E6-HLD-2
KD improvement (alpha-synuclein [4]): 1 fold (Ch2E6 = 1)

B8: 9C12 (antibody, V domains shown)
VH: QVQLVQSGAEVKKPGASVKVSCKASGYTFTSYWMHWMRQAPGQGLEWIGRIDPNSGTTKYNVNIKTRATLTVDKSTSTAYMELSSLRSEDTAVYYCARLGHYGNLYAMDYWGQGTLVT
VL: EIVLTQSPATLSLSPGERATLSCSASSSVSYMHWYQQKPGQAPRRLIYDTSKLASGVPARFSGSGSGTDYTLTISSLEPEDFAVYYCQQWSSNPPTFGQGTKLEIK
KD improvement (alpha-synuclein [6]): 10 fold (Ch2E6 = 1)

B9: 7C4 (antibody, V domains shown)
VH: QVQLVQSGAEVKKPGASVKVSCKASGYTFTRYWMHWMRQAPGQGPEWIGRIDPNSGTTKYNVNFKTRATLTVDKSTSTAYMELSSLRSEDTAVYYCARLGHYGNLYAMDYWGQGTLVT
VL: EIVLTQSPATLSLSPGERATLSCSASSSVSFMHWYQQKPGQAPRRWIYDTSKLASGVPARFSGSGSGTDYTLTISSLEPEDFAVYYCQQWSSNPPTFGQGTKLEIK
KD improvement (alpha-synuclein [6]): 7 fold (Ch2E6 = 1)

B10: HDL1-3 (antibody, V domains shown)
VH: QVQLVQSGAEVKKPGASVKVSCKASGYTFTSYWMHWMRQAPGQGLEWIGRIDPNSGTTKYNVNIKTRATLTVDKSTSTAYMELSSLRSEDTAVYYCARLGHYGNLYAMDYWGQGTLVT
VL: EIVLTQSPATLSLSPGERATLSCSASSSVSYIHWYQQKPGQAPRRWIYDTSKLASGVPARFSGSGSGTDYTLTISSLEPEDFAVYYCQQWSSNPPTFGQGTKLEIK
notes: also called combination 3: 7A10 light chain+9C12 heavy chain
KD improvement (alpha-synuclein [5]): 45 fold (Ch2E6 = 1) | Ka (alpha-synuclein [5]): 7.94e+08 M⁻¹ | Kd (alpha-synuclein [5]): 1.26 nM | koff (alpha-synuclein [5]): 0.000126 s⁻¹ | kon (alpha-synuclein [5]): 99900 M⁻¹ s⁻¹
